# Experimental data from IntAct's records for PubMed 27857056.
# B1: UDP-glucuronosyltransferase 2B7 (Homo sapiens), P16662 (parent)
# chain: MSVKWTSVILLIQLSFCFSSGNCGKVLVWAAEYSHWMNIKTILDELIQRGHEVTVLASSASILFDPNNSSALKIEIYPTSLTKTELENFIMQQIKRWSDLPKDTFWLYFSQVQEIMSIFGDITRKFCKDVVSNKKFMKKVQESRFDVIFADAIFPCSELLAELFNIPFVYSLSFSPGYTFEKHSGGFIFPPSYVPVVMSELTDQMTFMERVKNMIYVLYFDFWFEIFDMKKWDQFYSEVLGRPTTLSETMGKADVWLIRNSWNFQFPYPLLPNVDFVGGLHCKPAKPLPKEMEDFVQSSGENGVVVFSLGSMVSNMTEERANVIASALAQIPQKVLWRFDGNKPDTLGLNTRLYKWIPQNDLLGHPKTRAFITHGGANGIYEAIYHGIPMVGIPLFADQPDNIAHMKARGAAVRVDFNTMSSTDLLNALKRVINDPSYKENVMKLSRIQHDQPVKPLDRAVFWIEFVMRHKGAKHLRVAAHDLTWFQYHSLDVIGFLLVCVATVIFIVTKCCLFCFWKFARKAKKGKND
# partner: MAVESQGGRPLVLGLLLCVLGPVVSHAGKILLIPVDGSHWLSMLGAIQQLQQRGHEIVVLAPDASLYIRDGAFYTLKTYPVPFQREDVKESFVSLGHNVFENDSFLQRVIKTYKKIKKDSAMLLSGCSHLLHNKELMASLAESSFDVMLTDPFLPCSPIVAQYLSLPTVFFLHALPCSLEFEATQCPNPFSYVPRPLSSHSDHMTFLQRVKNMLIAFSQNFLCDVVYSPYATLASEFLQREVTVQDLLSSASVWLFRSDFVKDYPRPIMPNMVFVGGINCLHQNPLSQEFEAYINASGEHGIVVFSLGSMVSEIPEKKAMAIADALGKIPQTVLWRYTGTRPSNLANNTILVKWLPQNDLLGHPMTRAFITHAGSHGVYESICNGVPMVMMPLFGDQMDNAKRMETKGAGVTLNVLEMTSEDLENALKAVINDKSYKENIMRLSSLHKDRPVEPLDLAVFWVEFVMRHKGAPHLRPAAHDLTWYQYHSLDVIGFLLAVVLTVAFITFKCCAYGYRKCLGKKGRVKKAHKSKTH
# B2: UDP-glucuronosyltransferase 1A9 (Homo sapiens), O60656-1 (parent)
# chain: MACTGWTSPLPLCVCLLLTCGFAEAGKLLVVPMDGSHWFTMRSVVEKLILRGHEVVVVMPEVSWQLGRSLNCTVKTYSTSYTLEDLDREFKAFAHAQWKAQVRSIYSLLMGSYNDIFDLFFSNCRSLFKDKKLVEYLKESSFDAVFLDPFDNCGLIVAKYFSLPSVVFARGILCHYLEEGAQCPAPLSYVPRILLGFSDAMTFKERVRNHIMHLEEHLLCHRFFKNALEIASEILQTPVTEYDLYSHTSIWLLRTDFVLDYPKPVMPNMIFIGGINCHQGKPLPMEFEAYINASGEHGIVVFSLGSMVSEIPEKKAMAIADALGKIPQTVLWRYTGTRPSNLANNTILVKWLPQNDLLGHPMTRAFITHAGSHGVYESICNGVPMVMMPLFGDQMDNAKRMETKGAGVTLNVLEMTSEDLENALKAVINDKSYKENIMRLSSLHKDRPVEPLDLAVFWVEFVMRHKGAPHLRPAAHDLTWYQYHSLDVIGFLLAVVLTVAFITFKCCAYGYRKCLGKKGRVKKAHKSKTH
# partner: B1 chain
# B3: UDP-glucuronosyltransferase 1A9 (Homo sapiens), O60656-1 (parent)
# chain: B2 chain
# partner: B1 partner
# B4: UDP-glucuronosyltransferase 2B7 (Homo sapiens), P16662 (parent)
# chain: B1 chain
# partner: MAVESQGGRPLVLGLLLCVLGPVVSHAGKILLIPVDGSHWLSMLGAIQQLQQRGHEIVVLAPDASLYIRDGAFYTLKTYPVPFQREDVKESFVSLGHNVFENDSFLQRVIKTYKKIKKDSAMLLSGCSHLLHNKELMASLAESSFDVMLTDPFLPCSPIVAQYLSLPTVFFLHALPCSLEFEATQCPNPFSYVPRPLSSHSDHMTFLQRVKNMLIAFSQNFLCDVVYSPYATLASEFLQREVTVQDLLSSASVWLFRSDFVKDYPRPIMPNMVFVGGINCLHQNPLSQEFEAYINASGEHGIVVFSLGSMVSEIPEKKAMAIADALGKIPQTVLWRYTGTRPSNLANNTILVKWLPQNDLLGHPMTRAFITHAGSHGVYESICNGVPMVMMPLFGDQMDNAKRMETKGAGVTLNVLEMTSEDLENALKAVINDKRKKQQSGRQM
# B5: UDP-glucuronosyltransferase 1A9 (Homo sapiens), O60656-1 (parent)
# chain: B2 chain
# partner: B4 partner
# B6: UDP-glucuronosyltransferase 2B7 (Homo sapiens), P16662 (parent)
# chain: B1 chain
# partner: B2 chain
# Variants of: B1
# Settings: with UGT1A1, P22309-1
row,effect of a mutation on the interaction,Variant
1,with no effect,D398N
2,with no effect,A71S

# Variants of: B2
# Settings: with ud2b7_human UGT2B7, P16662
row,effect of a mutation on the interaction,Variant
1,with no effect,M33T
2,with no effect,C3Y
3,with no effect,D256N

# Variants of: B3
# Settings: with UGT1A1, P22309-1
row,effect of a mutation on the interaction,Variant
1,with no effect,M33T
2,with no effect,D256N
3,with no effect,C3Y

# Variants of: B4
# Settings: with UGT1A1, P22309-2
row,effect of a mutation on the interaction,Variant
1,disrupting interaction strength,D398N
2,with no effect,A71S

# Variants of: B5
# Settings: with UGT1A1, P22309-2
row,effect of a mutation on the interaction,Variant
1,with no effect,C3Y
2,with no effect,D256N
3,with no effect,M33T

# Variants of: B6
# Settings: with UGT1A9, O60656-1
row,effect of a mutation on the interaction,Variant
1,with no effect,D398N
2,with no effect,A71S
